± gives the uncertainty stated by the source.

This data set in a line: abundance fitness (aPCA) (normalised: wild type 0, dead -1); higher = more abundant; growth selection in yeast, the domain comes from the species named. The note with it: Homo sapiens.
“E3 ubiquitin-protein ligase NEDD4-like T219D, Q96PU5”: the abundance fitness is -0.595 ± 0.085.

For “E3 ubiquitin-protein ligase NEDD4-like T219E, Q96PU5”, the abundance fitness is -0.145 ± 0.068.

Regarding “E3 ubiquitin-protein ligase NEDD4-like T219F, Q96PU5”, the abundance fitness was -0.577 ± 0.075.

“E3 ubiquitin-protein ligase NEDD4-like T219G, Q96PU5” returned an abundance fitness of -0.632 ± 0.055.

“E3 ubiquitin-protein ligase NEDD4-like T219H, Q96PU5” registered an abundance fitness of -0.232 ± 0.099.

Substance “E3 ubiquitin-protein ligase NEDD4-like T219I, Q96PU5” registered an abundance fitness of -0.56 ± 0.081.

With “E3 ubiquitin-protein ligase NEDD4-like T219K, Q96PU5”, the abundance fitness is -0.157 ± 0.099.

Substance “E3 ubiquitin-protein ligase NEDD4-like T219L, Q96PU5” registered an abundance fitness of -0.623 ± 0.076.

Regarding “E3 ubiquitin-protein ligase NEDD4-like T219M, Q96PU5”, the abundance fitness is -0.285 ± 0.091.

Take “E3 ubiquitin-protein ligase NEDD4-like T219N, Q96PU5”: the abundance fitness was -0.221 ± 0.067.

In turn, “E3 ubiquitin-protein ligase NEDD4-like T219P, Q96PU5” gave an abundance fitness of -0.38 ± 0.1.

In turn, “E3 ubiquitin-protein ligase NEDD4-like T219R, Q96PU5” showed an abundance fitness of -0.3 ± 0.057.

With “E3 ubiquitin-protein ligase NEDD4-like T219S, Q96PU5”, the abundance fitness was -0.189 ± 0.086.

“E3 ubiquitin-protein ligase NEDD4-like T219V, Q96PU5”: the abundance fitness was -0.348 ± 0.063.

In turn, “E3 ubiquitin-protein ligase NEDD4-like T219W, Q96PU5” showed an abundance fitness of -0.598 ± 0.075.

Substance “E3 ubiquitin-protein ligase NEDD4-like T219Y, Q96PU5” had an abundance fitness of -0.451 ± 0.089.

“E3 ubiquitin-protein ligase NEDD4-like V203A, Q96PU5” came in with an abundance fitness of 0.023 ± 0.063.

Take “E3 ubiquitin-protein ligase NEDD4-like V203C, Q96PU5”: the abundance fitness is -0.066 ± 0.097.

As to “E3 ubiquitin-protein ligase NEDD4-like V203D, Q96PU5”, the abundance fitness is -0.143 ± 0.073.

For “E3 ubiquitin-protein ligase NEDD4-like V203E, Q96PU5”, the abundance fitness was -0.033 ± 0.068.

On to “E3 ubiquitin-protein ligase NEDD4-like V203F, Q96PU5”, for which the abundance fitness was -0.055 ± 0.069.

In turn, “E3 ubiquitin-protein ligase NEDD4-like V203G, Q96PU5” gave an abundance fitness of -0.424 ± 0.053.

As for “E3 ubiquitin-protein ligase NEDD4-like V203H, Q96PU5”, the abundance fitness came to 0.016 ± 0.11.

For the substance “E3 ubiquitin-protein ligase NEDD4-like V203I, Q96PU5”, the abundance fitness was -0.293 ± 0.097.

Consider “E3 ubiquitin-protein ligase NEDD4-like V203K, Q96PU5”, for which the abundance fitness was -0.064 ± 0.078.

“E3 ubiquitin-protein ligase NEDD4-like V203M, Q96PU5” registered an abundance fitness of -0.096 ± 0.059.

“E3 ubiquitin-protein ligase NEDD4-like V203P, Q96PU5” registered an abundance fitness of -0.368 ± 0.07.

The substance “E3 ubiquitin-protein ligase NEDD4-like V203Q, Q96PU5” returned an abundance fitness of 0.019 ± 0.093.

The substance “E3 ubiquitin-protein ligase NEDD4-like V203R, Q96PU5” returned an abundance fitness of 0.007 ± 0.054.

For “E3 ubiquitin-protein ligase NEDD4-like V203S, Q96PU5”, the abundance fitness is -0.144 ± 0.066.

Take “E3 ubiquitin-protein ligase NEDD4-like V203T, Q96PU5”: the abundance fitness was -0.115 ± 0.092.

“E3 ubiquitin-protein ligase NEDD4-like V203W, Q96PU5” returned an abundance fitness of -0.347 ± 0.078.

Substance “E3 ubiquitin-protein ligase NEDD4-like V203Y, Q96PU5” yielded an abundance fitness of -0.227 ± 0.11.

As for “E3 ubiquitin-protein ligase NEDD4-like V212A, Q96PU5”, the abundance fitness is -0.102 ± 0.069.

In turn, “E3 ubiquitin-protein ligase NEDD4-like V212C, Q96PU5” yielded an abundance fitness of -0.097 ± 0.076.

With “E3 ubiquitin-protein ligase NEDD4-like V212D, Q96PU5”, the abundance fitness is -0.458 ± 0.094.

As to “E3 ubiquitin-protein ligase NEDD4-like V212E, Q96PU5”, the abundance fitness is -0.068 ± 0.057.

For the substance “E3 ubiquitin-protein ligase NEDD4-like V212G, Q96PU5”, the abundance fitness is -0.417 ± 0.053.

In the case of “E3 ubiquitin-protein ligase NEDD4-like V212H, Q96PU5”, the abundance fitness was -0.207 ± 0.12.

Substance “E3 ubiquitin-protein ligase NEDD4-like V212I, Q96PU5” showed an abundance fitness of -0.356 ± 0.12.

For the substance “E3 ubiquitin-protein ligase NEDD4-like V212K, Q96PU5”, the abundance fitness is -0.974 ± 0.18.

Consider “E3 ubiquitin-protein ligase NEDD4-like V212M, Q96PU5”, for which the abundance fitness is -0.076 ± 0.076.

For the substance “E3 ubiquitin-protein ligase NEDD4-like V212N, Q96PU5”, the abundance fitness is -0.47 ± 0.15.

Substance “E3 ubiquitin-protein ligase NEDD4-like V212P, Q96PU5” showed an abundance fitness of -0.485 ± 0.11.

Regarding “E3 ubiquitin-protein ligase NEDD4-like V212R, Q96PU5”, the abundance fitness was -0.196 ± 0.057.

“E3 ubiquitin-protein ligase NEDD4-like V212S, Q96PU5”: the abundance fitness was -0.347 ± 0.071.

“E3 ubiquitin-protein ligase NEDD4-like V212T, Q96PU5” showed an abundance fitness of -0.225 ± 0.094.

As to “E3 ubiquitin-protein ligase NEDD4-like V212W, Q96PU5”, the abundance fitness was -0.183 ± 0.083.

“E3 ubiquitin-protein ligase NEDD4-like V212Y, Q96PU5” had an abundance fitness of -0.003 ± 0.15.

“E3 ubiquitin-protein ligase NEDD4-like V229A, Q96PU5”: the abundance fitness was -0.001 ± 0.064.

As for “E3 ubiquitin-protein ligase NEDD4-like V229C, Q96PU5”, the abundance fitness is -0.203 ± 0.084.

Turning to “E3 ubiquitin-protein ligase NEDD4-like V229D, Q96PU5”, the abundance fitness is 0.019 ± 0.068.

In turn, “E3 ubiquitin-protein ligase NEDD4-like V229E, Q96PU5” showed an abundance fitness of 0.003 ± 0.077.

With “E3 ubiquitin-protein ligase NEDD4-like V229F, Q96PU5”, the abundance fitness is -0.057 ± 0.099.

Substance “E3 ubiquitin-protein ligase NEDD4-like V229G, Q96PU5” yielded an abundance fitness of 0.036 ± 0.057.

Consider “E3 ubiquitin-protein ligase NEDD4-like V229H, Q96PU5”, for which the abundance fitness is -0.263 ± 0.1.

“E3 ubiquitin-protein ligase NEDD4-like V229I, Q96PU5” displayed an abundance fitness of -0.013 ± 0.099.

“E3 ubiquitin-protein ligase NEDD4-like V229K, Q96PU5” registered an abundance fitness of -0.111 ± 0.095.

In turn, “E3 ubiquitin-protein ligase NEDD4-like V229L, Q96PU5” had an abundance fitness of 0.057 ± 0.056.

Substance “E3 ubiquitin-protein ligase NEDD4-like V229N, Q96PU5” came in with an abundance fitness of -0.007 ± 0.11.

In the case of “E3 ubiquitin-protein ligase NEDD4-like V229Q, Q96PU5”, the abundance fitness is -0.133 ± 0.1.

Substance “E3 ubiquitin-protein ligase NEDD4-like V229R, Q96PU5” yielded an abundance fitness of -0.016 ± 0.061.

“E3 ubiquitin-protein ligase NEDD4-like V229S, Q96PU5” came in with an abundance fitness of 0.033 ± 0.067.

On to “E3 ubiquitin-protein ligase NEDD4-like V229T, Q96PU5”, for which the abundance fitness is 0.018 ± 0.065.

Consider “E3 ubiquitin-protein ligase NEDD4-like V229W, Q96PU5”, for which the abundance fitness is -0.164 ± 0.06.

In the case of “E3 ubiquitin-protein ligase NEDD4-like W199A, Q96PU5”, the abundance fitness was -0.535 ± 0.086.

For the substance “E3 ubiquitin-protein ligase NEDD4-like W199C, Q96PU5”, the abundance fitness was -0.25 ± 0.098.

“E3 ubiquitin-protein ligase NEDD4-like W199D, Q96PU5” had an abundance fitness of -0.744 ± 0.1.

For the substance “E3 ubiquitin-protein ligase NEDD4-like W199E, Q96PU5”, the abundance fitness is -0.275 ± 0.083.

The substance “E3 ubiquitin-protein ligase NEDD4-like W199F, Q96PU5” displayed an abundance fitness of 0.004 ± 0.079.

“E3 ubiquitin-protein ligase NEDD4-like W199G, Q96PU5” had an abundance fitness of -0.413 ± 0.063.

“E3 ubiquitin-protein ligase NEDD4-like W199I, Q96PU5” had an abundance fitness of -0.462 ± 0.13.

In turn, “E3 ubiquitin-protein ligase NEDD4-like W199L, Q96PU5” displayed an abundance fitness of -0.502 ± 0.058.

As to “E3 ubiquitin-protein ligase NEDD4-like W199M, Q96PU5”, the abundance fitness was -0.514 ± 0.089.

For the substance “E3 ubiquitin-protein ligase NEDD4-like W199N, Q96PU5”, the abundance fitness was -0.853 ± 0.19.

On to “E3 ubiquitin-protein ligase NEDD4-like W199P, Q96PU5”, for which the abundance fitness is -1.03 ± 0.13.

With “E3 ubiquitin-protein ligase NEDD4-like W199Q, Q96PU5”, the abundance fitness was -0.586 ± 0.098.

“E3 ubiquitin-protein ligase NEDD4-like W199R, Q96PU5” had an abundance fitness of -0.536 ± 0.065.

For the substance “E3 ubiquitin-protein ligase NEDD4-like W199S, Q96PU5”, the abundance fitness is -0.454 ± 0.067.

As for “E3 ubiquitin-protein ligase NEDD4-like W199T, Q96PU5”, the abundance fitness was -0.176 ± 0.09.

“E3 ubiquitin-protein ligase NEDD4-like W199V, Q96PU5” gave an abundance fitness of -0.287 ± 0.07.

Consider “E3 ubiquitin-protein ligase NEDD4-like W199Y, Q96PU5”, for which the abundance fitness was -0.403 ± 0.14.

“E3 ubiquitin-protein ligase NEDD4-like W221A, Q96PU5” gave an abundance fitness of -0.035 ± 0.077.

On to “E3 ubiquitin-protein ligase NEDD4-like W221C, Q96PU5”, for which the abundance fitness is -0.051 ± 0.079.
